The text below walks through data of article PMC4660199.

Where a chain is given by its changes, count along the chain named. Names may count otherwise. Where no end group is shown, it is not given here.

In this assay the target is full-length cpSRP43 (UniProt O22265). Kind of assay: ITC; VP-ITC, 20 °C, 20 mM Hepes (pH 7.5), 150 mM NaCl, 5 mM MgCl2, 0.25 mM TCEP; 0.01–0.1 mM in the cell, 0.1–1.0 mM in the syringe; duplicate or triplicate. A general note: ITC needs no label: the signal is the heat of the interaction.

B1: A3CT K457A/R458A (domain or fragment)
chain: DENASKIISAGRAKRSIAQPDDAGERFRQLKEQEKRSKKNKAVAKDTVELVEESQSESEEGSDDEEEEAREGALASSTTSKPLPEVGQRRSKRSAAKRTV
Consider B1, for which the Kd (in general, the free concentration of one partner at which half of the binding sites on the other are occupied at equilibrium, for simple one-to-one binding) was found to be 44 µM.

B2: A3CT K459A/R460A (domain or fragment)
chain: B1 chain with A95K, A96R, K97A, R98A
For the molecule B2, the Kd was 20 µM.

B3: A3CT IV peptide (peptide)
peptide: GALASSTTSKPLPEVGQRRSKRSKRKRT
modifications: also: 15N,13C labelled where it is the observed NMR partner
The molecule B3 had a Kd of 15 µM.
